Measured values from the supplement of paper PMC9170038.

Tested on: MS2 coat protein
Assay: apparent KD of MS2 coat protein; designed switch direction (-1 OFF switch, 1 ON switch): -1; higher = weaker reporter binding
Summary of the method: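 The buffer was Tris-HCl pH 7.5 with KCl, MgCl2, BSA, DTT, tRNA and Tween-20. In it, SNAP-549-labelled MS2 coat protein was titrated in doubling steps from 0.7 or 1.5 nM to 3 µM over chip-bound RNA switches transcribed by stalled E. coli RNA polymerase on Illumina chips. Apparent KD is the per-design median over clusters of curve fits to normalised fluorescence.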

[1] = Eterna round: R95, input ligand: microRNA oligo, concentration not stated
[2] = Eterna round: R95, input ligand: FMN 200 uM
[3] = Eterna round: R95, input ligand: none
[4] = input ligand: microRNA oligo, concentration not stated

Sequence | apparent KD of MS2 coat protein (input ligand: FMN 200 uM) [nM] | apparent KD of MS2 coat protein (input ligand: none) [nM] | apparent KD of MS2 coat protein [1] [nM] | apparent KD of MS2 coat protein [2] [nM] | apparent KD of MS2 coat protein [3] [nM] | apparent KD of MS2 coat protein [4] [nM]
AUAUAGCGAGGAUAUACAUGAGGAUCACCCAUGUAGGUUCCGGGUUUUCCAGUAAAAUGUAGAAGGCGCAUGGA [EX3 B.5] (Eterna round: R97, puzzle: Exclusion 3) | 99.4 | 44.6 |  |  |  | 
AUUUAGAGAGGAUAUAUUAUGUGAAACAUGAGGAUCACCCAUGUAAUAUGAUGGAUAUAAAUAGAAGGCUCAUUUA [Mat - Exclusion 5 - JL mod - D24] (puzzle: Exclusion 5) |  |  | 32.3 |  |  | 
CUUUCGUGAGGAUAUCAGUAGUAAUAAAAUAAAAUUACUACUGAGAAGGCACAUGAGGAUCACCCAUGUUCCUC [salish99_ex3_r3_098] (puzzle: Exclusion 4) |  |  | 23.5 |  |  | 
CAAGAACAGGUCAGGAUAUGGCAAAUAAAUAACAACCAGAAGGGACUUGAGGAUCACCCAAGUUUAGAAGGGUA [Tebeorus] (Eterna round: R97, puzzle: Brourd's mod of Exclusion 4) | 221 | 39.4 |  |  |  | 
CAGUACUGAGGAUAUACAUGAGGAUCACCCAUGUGUUCCGGCUAGGAAACUAGCAAAGGUAGAAGGCAGUACUG [Salish 065 m11] (Eterna round: R97, puzzle: Exclusion 3) | 823 | 43.7 |  |  |  | 
CCUGCACAUGAGGAUCACCCAUGUCAGGAUAUCUCGCCGUGAAGAGCAACACGGUAUUAGAGAAGGGACACGGG [Tixe] (puzzle: Exclusion 1) |  |  | 20.7 |  |  | 
GGAUCGAGUGUGAGGAUAUGCUGGUCCUAAGAUCAGCAGAAGGCACAUGAGGAUCACCCAUGUGAAAACGGUCC [Mat - Exclusion 4 - JL Mod - D71] (puzzle: Brourd's mod of Exclusion 4) |  |  | 23.5 |  |  | 
GCCGUACAAGGAUAUACAUGAGGAUCACCCAUGUGUCUCCUCGAGAGCAAACGGCUCUGUAGAAGGUGUCGUAA [EX3 C.20] (Eterna round: R97, puzzle: Exclusion 3) | 16.5 | 15.6 |  |  |  | 
GGUCUGCGAGGAUAUACAUGAGGAUCACCCAUGUGAGAGUUACUAGUGAGGUCGAUUGGUAGAAGGCGCGGACG [JL-ex3-2.04 salish99 mod] (puzzle: Exclusion 3) |  |  | 103 | 19 | 154 | 
GAUGAAAGAGUCAGGAUAUAUAACCACGACGGCUUGUAGAAGGGACAUGAGGAUCACCCAUGUGAUGGAAUGAU [Eternabot (L2) Solution 13] (Eterna round: R97, puzzle: Brourd's mod of Exclusion 4) | 64 | 43.6 |  |  |  | 
UGUUGUUACGCAGGAUAUGAGGAUCACCCAUAGUAGGAUAACGAAAGUGAAGGACUGAGGAUUACCCAGAAGGGCGGGUUAACA [pwkr exNG2 2xF5 2xFMN.3] (Eterna round: R96, puzzle: Exclusion NG 2) | 1010 | 154 |  |  |  | 101
CCUCGACAUGAGGAUCACCCAUGUAAGGAUAUGUUGACGAGCCUGAAAAGGCUGGUCAACAGAAGGUAUAUGUA [Exclusion 1 (Mod 1b.1 solution 16 by Eternabot)] (Eterna round: R97, puzzle: Exclusion 1) | 112 | 28.4 |  |  |  | 
UAAUUAAAUGUAGGAUAUCUGCACGUUUAGUGCAGAGAAGGACAUGAGGAUCACCCAUGUAGAUCAAAUUAAAUUAAUUUAAUU [ENG1/5-D2] (Eterna round: R96, puzzle: Exclusion NG 1) | 99.6 | 33.8 |  |  |  | 25.7
AAUAAUACAGGAUAUACAGUUUAUUACAUGAGGAUCACCCAUGUUCUUCAAUGUAUAUAAGUAGAAGGGUAAGGAA [EX-5 Malc#1] (puzzle: Exclusion 5) |  |  | 25.1 | 50.9 | 24.3 | 
AGUGUCUUAGGAUAUACAUGAGGAUCACCCAUGUUAACAUUCCUUCGCGGUAUCGCAUGUAGAAGGAGGAUAUG [Eternabot (L1) Solution 68] (Eterna round: R97, puzzle: Exclusion 3) | 33.1 | 26.8 |  |  |  | 
GUGAGUAGUCAGGAUAUGCUGUACAAAAGUACAGCAGAAGGGAUUACAUGAGGAUCACCCAUGUGUACUUCAUG [Omei Ex6 B10] (Eterna round: R97, puzzle: Exclusion 6) | 940 | 322 |  |  |  | 
UUAACAUGCUGGUGAUCAUACAUGAGGAUCACCCAUGUAACAAGCUUUUUGCUCGUCUUAUAAGAUCACCAGCAUGU [Stov1/9-A1] (Eterna round: R97, puzzle: Sensor, turn-off variant 1) | 14.7 | 12.2 |  |  |  | 
CCAUUCAGAGGAUAUGCGCAUAAAUAAGACUUUUUUUUUUAACAUGAGGAUCACCCAUGUAGAAGGCUGUAACC [Ex2 #46] (Eterna round: R97, puzzle: Exclusion 2) | 24.6 | 24.8 |  |  |  | 

Sequence | apparent KD of MS2 coat protein (input ligand: FMN 200 uM) [nM] | apparent KD of MS2 coat protein (input ligand: none) [nM] | apparent KD of MS2 coat protein [1] [nM] | apparent KD of MS2 coat protein [2] [nM] | apparent KD of MS2 coat protein [3] [nM] | apparent KD of MS2 coat protein [4] [nM]
CCAUCACAUGAGGAUCACCCAUGUUAGGAUAUCAUUAGCCUCGGAGCUAUAGCGAGGUUGAGAAGGGACAUGUC [Eternabot (L1) Solution 87] (Eterna round: R97, puzzle: Exclusion 1) | 19.9 | 22.7 |  |  |  | 
AGAAAUGCCCAUGGCCACAAGCUUUUUGCUUAUCUUACCACAUGAGGAUCACCCAUGUGACAUGGGCUCCUGAUAAU [Teedor] (puzzle: Sensor v3, turn-off variant 2) |  |  | 19.4 | 18.5 | 17.1 | 
GGUCGACAUGAGGAUCACCCAUGUUAGGAUAUUAGCCAAUGGUCUCGUUAUGAGUCAUUAAGAAGGAACAUGCU [Eternabot (L1) Solution 37] (Eterna round: R97, puzzle: Exclusion 1) | 18 | 14.9 |  |  |  | 
UUUUUACAUGAGGAUCACCCAUGUGAGGAUAUGGUUUCGCUGGCCGUAGCCAGUGGAACCAGAAGGCGCAUGAU [Mat - Exclusion 1 - JL Mod - D8] (Eterna round: R97, puzzle: Exclusion 1) | 374 | 84.7 |  |  |  | 
UUAUUACAAGCAAGAUCCUACAUGAGGAUCACCCAUGUGCUCGUCUUAUAAGGUACAGUGACGAAAGUCACAGUACC [Sensor 3, v1 - 00] (puzzle: Sensor v3, turn-off variant 1) |  |  | 138 | 204 | 221 | 
GAUAGAGAGCAGGAUAUCUUGGGUAAGUGUUGUAGAGAAGGGCUCACAUGAGGAUCACCCAUGUGGUCCUAGAU [JL Dibiri mod 08] (puzzle: Exclusion 6) |  |  | 14.5 | 33.5 | 11.3 | 
CGUGGACUAGGAUAUUUACGAGGCUACAUGAGGAUCACCCAUGUGUUCUCGAGUACCAUGAAAGAAGGAGUAGCGA [Betiatte] (puzzle: Exclusion 5) |  |  | 12 |  |  | 
ACAUGAGGAUCACCCAUGUUGUACUGGAUAGGGUGGUCCAGGUAGGAUAUGCAAACGCGUUGCGAGCAGAAGGACCACAGCCAG [Ceed] (Eterna round: R96, puzzle: Exclusion NG 3) | 49.8 | 35.3 |  |  |  | 29.4
UAUAUAUAGUAAGGAUAUAUAUUUAUUUUAUAAAUAGAAGGUACAGACAUGAGGAUCACCCAUGUUAUAAUAUGGACAUGUGGA [JMF's Solution 1] (Eterna round: R96, puzzle: Exclusion NG 1) |  |  |  |  |  | 45.3
CGCCUGUAAGGAUAUUAGUAGUAGUCAGAAUAGACUAUUACUGAGAAGGUACAUGAGGAUCACCCAUGUUGGCG [Eli x4 4.10] (Eterna round: R97, puzzle: Exclusion 4) | 19.7 | 18.5 |  |  |  | 
CCGAGGCUAGGAUAUUGACGAUAAUACAUGAGGAUCACCCAUGUGAGUCGUGUAUGCGCGCAAGAAGGAGUAAUAA [Tiorreonbi] (puzzle: Exclusion 5) |  |  | 15.2 |  |  | 
AGGUGCUUCUGGAGACAUGAGGAUCACCCAUGUUGAGUUAGCGAGGAUAUCGGUAACGCAUGUGAUGAGAAGGCGCAAACCAAU [Ex NG3 #47] (Eterna round: R96, puzzle: Exclusion NG 3) | 79.7 | 47 |  |  |  | 30.7
UUUGUUUAUGUAGGAUAUGCCUGGCGUGCCUUUGCAGAAGGACAUGAGGAUCACCCAUGUAACAUGAGGCUCACCCAUGUCGCA [salish99_ExNG1_r04_110] (Eterna round: R96, puzzle: Exclusion NG 1) | 682 | 645 |  |  |  | 453
UCUUGCUGGCGAGGAUAUCCUGUGCGGUUCCGGCUCGUGUCUGUUACAUGAGGAUCACCCAUGUGGGAGAAGGUGUCUGUGGCC [Design 97] (Eterna round: R96, puzzle: Exclusion NG 2) | 18.6 | 21.9 |  |  |  | 16.7
CUGGUCCGAGGAUAUAUUAAGUGAAACAUGAGGAUCACCCAUGUUAUUUGAUGGAUGUAAAUAGAAGGCGGACUAG [JL-ex5-3.13] (puzzle: Exclusion 5) |  |  | 33.1 | 23.8 | 49.1 | 
CUUGACUGAGGAUAUACGAGAUCGAAAGAUCGGCGAUCCCUACAUGAGGAUCACCCAUGUAGAAGGCAGUCAAG [Mod 14 - Jieux - Exclusion 2] (Eterna round: R97, puzzle: Exclusion 2) | 70.6 | 17 |  |  |  | 
GUAGAGUCAGGAUAUACGAGAUCGAAAGAUCGGUAGUCCUUACAUGAGGAUCACCCAUGUAGAAGGGACUCUAC [Omei mod 7 to Eli's favorate candidate (ch.parushev)] (Eterna round: R97, puzzle: Exclusion 2) | 118 | 15.8 |  |  |  | 
